Source: patent publication US20260242515A1 (DUALITY BIOLOGICS SHANGHAI, published 2026)

T1: Human ADAM9 protein (ACROBiosystems, Cat. No. AD9-H52H7) (human, UniProt Q13443 29-697)
T1 construct: Bought protein; also called Human ADAM-His protein; human ADAM9 antigen; not shown: His tag
T1 sequence (looked up): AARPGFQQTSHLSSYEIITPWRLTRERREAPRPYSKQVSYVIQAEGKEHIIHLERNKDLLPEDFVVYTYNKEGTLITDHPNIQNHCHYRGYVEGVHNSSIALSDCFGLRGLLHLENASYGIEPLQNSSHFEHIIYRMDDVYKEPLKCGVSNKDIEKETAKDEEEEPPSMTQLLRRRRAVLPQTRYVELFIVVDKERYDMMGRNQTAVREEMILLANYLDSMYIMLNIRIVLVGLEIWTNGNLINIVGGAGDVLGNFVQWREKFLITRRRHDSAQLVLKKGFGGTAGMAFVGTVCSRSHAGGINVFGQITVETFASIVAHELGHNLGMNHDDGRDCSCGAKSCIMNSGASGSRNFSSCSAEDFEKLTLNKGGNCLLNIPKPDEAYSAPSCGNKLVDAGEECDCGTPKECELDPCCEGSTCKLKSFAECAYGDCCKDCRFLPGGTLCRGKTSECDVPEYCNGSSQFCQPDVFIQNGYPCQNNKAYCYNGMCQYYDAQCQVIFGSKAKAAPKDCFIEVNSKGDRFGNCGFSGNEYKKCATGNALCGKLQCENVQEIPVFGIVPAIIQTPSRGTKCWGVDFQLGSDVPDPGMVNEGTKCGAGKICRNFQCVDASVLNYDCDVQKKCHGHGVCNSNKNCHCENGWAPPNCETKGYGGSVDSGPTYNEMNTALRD

T2: Monkey ADAM9 protein (ACRO, Cat. No. AD9-C52H7) (cynomolgus monkey, UniProt A0A2K5X4X8 29-697)
T2 construct: Bought protein; also called cynomolgus ADAM9 protein; monkey ADAM9 antigen
T2 sequence: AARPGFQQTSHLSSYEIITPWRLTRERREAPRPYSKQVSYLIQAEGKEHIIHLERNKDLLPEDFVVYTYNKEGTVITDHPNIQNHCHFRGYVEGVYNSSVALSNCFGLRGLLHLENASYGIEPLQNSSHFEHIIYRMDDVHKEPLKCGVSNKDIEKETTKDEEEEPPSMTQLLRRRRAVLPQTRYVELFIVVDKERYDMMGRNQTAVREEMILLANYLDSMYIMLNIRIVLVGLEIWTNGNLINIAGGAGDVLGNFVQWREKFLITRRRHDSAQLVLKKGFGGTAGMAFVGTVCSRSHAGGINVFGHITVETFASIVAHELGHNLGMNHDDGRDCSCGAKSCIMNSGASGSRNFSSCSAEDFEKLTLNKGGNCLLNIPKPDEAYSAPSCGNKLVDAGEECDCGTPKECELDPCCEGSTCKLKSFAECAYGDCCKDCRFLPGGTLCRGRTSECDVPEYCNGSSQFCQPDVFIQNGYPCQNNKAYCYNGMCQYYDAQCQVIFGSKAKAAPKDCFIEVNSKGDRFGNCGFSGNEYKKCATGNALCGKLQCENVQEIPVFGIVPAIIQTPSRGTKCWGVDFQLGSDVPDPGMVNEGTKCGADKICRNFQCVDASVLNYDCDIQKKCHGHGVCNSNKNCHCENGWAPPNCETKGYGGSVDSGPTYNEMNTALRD


Legend:
[1] = target: T1, Human ADAM9 protein (ACROBiosystems, …); test: indirect ELISA, human ADAM9-His coated at 1 ug/mL
Description: The plate was washed three times with PBST (PBS (pH 7.4) containing 0.05% Tween-20), followed by addition of 200 μL/well of blocking buffer containing 1% bovine serum albumin (BSA) diluted in PBST, and incubated at 37° C. for 1 hour for blocking. After blocking, the blocking buffer was discarded, and the plate was washed once with PBST buffer. The test antibody was diluted in PBST containing 1% BSA with a 3-fold serial dilution starting at 15 μg/mL across 11 doses, and added to the ELISA plate at 100 μL/well, followed by incubation at 37° C. for 1 hour. After incubation, the plate was washed three times with PBST, followed by addition of 100 μL/well of HRP-labeled goat anti-human secondary antibody (Rockland, Cat. No. 609-103-123) diluted in PBST containing 1% BSA, and incubated at room temperature for 45 minutes. The plate was washed six times with PBST, followed by addition of 100 μL/well of TMB chromogenic substrate (Suzhou Yacoo Chemical Reagent Co., Ltd., Cat. No. S0025), and incubated at room temperature in the dark for 10 minutes. The reaction was terminated by adding 50 μL/well of 1 M HCl, and the absorbance was measured at 450 nm using a microplate reader (Thermo, Ascent) for data analysis.

[2] = target: T2, Monkey ADAM9 protein (ACRO, Cat. No. …); test: SPR (Biacore 8K), antibody captured by anti-human Fc on CM5, monkey ADAM9 as analyte
Description: Chip preparation: The mouse anti-human IgG (Fc) antibody (Cat. No. 29234600, Cytiva) was diluted to 25 μg/mL in immobilization buffer (10 mM sodium acetate, pH 5.0), specifically by adding 950 μL of the immobilization buffer to 50 μL of the mouse anti-human IgG (Fc) antibody. The dilution was used for immobilization in eight channels. First, the surface of the CM5 chip was activated with 400 mM EDC and 100 mM NHS at a flow rate of 10 μL/min for 420 seconds. Then, 25 μg/mL of the mouse anti-human IgG (Fc) antibody was injected into the test channels at a flow rate of 10 μL/min for approximately 360 seconds, with the level of immobilization at approximately 7000 to 14000 RU. Finally, the chip was blocked with 1 M ethanolamine at a flow rate of 10 μL/min for 420 seconds. The reference channels underwent the same procedures as the test channels.
Ligand capture: Antibodies Ab10, Ab15, Ab16, and hMAB-A (2I.2) were diluted to 4 μg/mL in running buffer (containing 10 mM N-(2-hydroxyethyl)piperazine-N-2-ethanesulfonic acid (HEPES), 150 mM sodium chloride (NaCl), 3 mM ethylenediaminetetraacetic acid (EDTA), 0.005% Tween-20, pH adjusted to 7.4) and injected into the test channels for human IgG (Fc) capture at a flow rate of 10 μL/min at approximately 200 RU. No ligand capture was performed in the reference channels.
Analyte multi-cycle analysis: Human and cynomolgus ADAM9 proteins (human ADAM9 protein purchased from ACRO, Cat. No. AD9-H52H7; monkey ADAM9 protein purchased from ACRO, Cat. No. AD9-C52H7) were diluted 2-fold in running buffer (Table 10). The diluted human or cynomolgus ADAM9 protein was sequentially injected into the test channels and the reference channels at a flow rate of 30 μL/min, with corresponding association and dissociation times. Both the association and dissociation steps were performed in the running buffer. After each concentration analysis, the chip was regenerated with 3 M magnesium chloride at a flow rate of 20 μL/min for 30 seconds to wash away the ligand and any undissociated analyte. For the next concentration analysis, the test channels required re-capture of the same amount of ligand.

Row | EC50 [1] | Top (OD450) [1] | Kd [2] | koff [2] | kon [2] | Binder
1 | 0.049 nM | 3.28 OD450 | 9.47 nM | 0.000461 s⁻¹ | 48700 M⁻¹ s⁻¹ | Ab15 (antibody, human IgG1, kappa, V domains shown, Humanized anti-ADAM9 IgG1/kappa; also called Ab15-V (variable regions)) VH: QVQLQQPGAELKKPGASVKVSCKASGFTFPLYWMNWVRQRPGRGLEWIGRIIPIFGHTKYNEKFKDRATMTADESSSTAYMELSSLTSEDSAVYYCARGGYYYYPREGFLDYWGQGTSVTVSS VL: DIVMTQSPDSLSVSPGERATINCRSSQSVDYSGDSYMNWYQQKPGQSPRLLIYAASDRESGVPDRFSGSGSGTDFTLKISNVEEEDAATYYCQQSREDPFTFGQGTRVEIKR
2 | 0.042 nM | 3.36 OD450 | 8.61 nM | 0.000528 s⁻¹ | 61300 M⁻¹ s⁻¹ | Ab16 (antibody, human IgG1, kappa, V domains shown, Humanized anti-ADAM9 IgG1/kappa; also called Ab16-V (variable regions)) VH: QVQLQQPGTEVVKPGASVKLSCKASGFTFPLYWMHWVRQRPGRGLEWIGRIIPIFGHTKYNEKFKNKATLTADESSSTAYMELRSLTSDDSAVYYCARGGYYYYPREGFLDYWGQGTSVTVSS VL: DIVMTQSPASLSVSPGERASISCRSSQSVDYSGDSYMNWYQQKPGQSPRLLIYAASDRESGVPDRFSGSGSGTDFTLKISRVEEEDAGTYYCQQSREDPFTFGQGTKVDIKR
